Measurements: article PMC5638241, “Chlorophyte aspartyl aminopeptidases: Ancient origins, expanded families, new locations, and secondary functions” (PLoS ONE, 2017)

B1: His6-DAP2 (mature AtDAP2) (Arabidopsis thaliana) (protein)
chain: ASIVGDLLDYLNESWTQFHATAEAKRQLLAAGFDLLSENEDWNLKPGGRYFFTRNMSCLVAFAVGEKYVPGNGFHAIAAHTDSPCLKLKPKSASSKSGYLMVNVQTYGGGLWHTWFDRDLSVAGRAIVRASDGSFVHRLVKVKRPLLRVPTLAIHLDRTVNSDGFKPNLETQLVPLLATKSDESSAESKDKNVSSKDAHHPLLMQILSDDLDCKVEDIVSLELNICDTQPSCLGGANNEFIFSGRLDNLASSFCALRALIDSCESSENLSTEHDIRMIALFDNEEVGSDSCQGAGAPTMFQAMRRIVSSLGNKQVTECTFDRAIRKSFLVSADMAHGVHPNFADKHEENHRPQLHKGLVIKHNANQRYATSGITSFLFKEVAKLHDLPIQEFVVRNDMGCGSTIGPILASGVGIRTVDCGIAQLSMHSVREICGTDDIDIAYRHFKAFYRSFSSVDKKLVVDD
notes: mature form without 63-residue transit peptide, N-terminal His6 fusion (pET28), E. coli BL21(DE3)pLysS, Ni-NTA; no tag removal mentioned
B2: Arabidopsis thaliana aspartyl aminopeptidase 1 with N-terminal His6 (His6-DAP1) (enzyme, UniProt Q9LST0 1-477, looked up)
chain: MDKSSLVSDFLSFLNASPTAFHAVDESKRRLLKAGYEQISERDDWKLEAGKKYFFTRNYSTIVAFAIGHKYVAGNGFHIIGAHTDSPCLKLKPVSKITKGGCLEVGVQTYGGGLWYTWFDRDLTVAGRVILKEEKAGSVSYSHRLVRIEDPIMRIPTLAIHLDRNVNTEGFKPNTQTHLVPVLATAIKAELNKTPAESGEHDEGKKCAETSSKSKHHPLLMEIIANALGCKPEEICDFELQACDTQPSILAGAAKEFIFSGRLDNLCMSFCSLKALIDATSSGSDLEDESGIRMVALFDHEEVGSNSAQGAGSPVMIDAMSHITSCFSSDTKVLKKAIQKSLLVSADMAHALHPNFMDKHEENHQPKMHGGLVIKHNANQRYATNAVTSFVFREIAEKHNLPVQDFVVRNDMGCGSTIGPILASSVGIRTVDVGAPQLSMHSIREMCAADDVKHSYEHFKAFFQEFTHLDAKLTIDV
notes: AtDAP1 (At5g60160), M18 aspartyl aminopeptidase of Arabidopsis thaliana ecotype Columbia; entire coding region of the DAP1 cDNA (nucleotides 86 to 1519 of NM_125409) cloned into pET28; Monomer 54.6 kDa as printed; also called AtDAP1; At5g60160; source: E. coli BL21[DE3]pLys, purified (Ni-NTA, 100-kDa MWCO Centricon); not shown: His6, N-terminal, kept; copies: 12

Key:
[1] = target: Arabidopsis thaliana aspartyl aminopeptidase 2, mature (without transit peptide), with N-terminal His6 (His6-DAP2) (Arabidopsis thaliana); assay: native gel or EMSA; series of native polyacrylamide gels (4, 4.5, 5 and 6% acrylamide) of Ni-NTA-purified His6-DAPs; masses from relative mobilities and retardation coefficients (Hedrick and Smith; Bryan), BSA and urease as mass standards
purified protein = substrate: N[C@@H](CC(=O)O)C(=O)Nc1ccc([N+](=O)[O-])cc1; assay: purified protein; type: biochemical, Arabidopsis thaliana; details: 50 mM Tris-HCl pH 8.0, enzyme pre-activated with 0.5 mM MnCl2
[2] = target: the molecule itself; assay: native gel or EMSA; series of native polyacrylamide gels (4, 4.5, 5 and 6% acrylamide) of Ni-NTA-purified His6-DAPs; masses from relative mobilities and retardation coefficients (Hedrick and Smith; Bryan), BSA and urease as mass standards

Molecule	stoichiometry N [1]	Km (purified protein) [µM]	kcat/Km (purified protein) [M⁻¹ s⁻¹]	stoichiometry N [2]
Arabidopsis thaliana aspartyl aminopeptidase 2, mature (without transit peptide), with N-terminal His6 (His6-DAP2) (enzyme)	12			
B1		210	3.47e+07	
B2		1250		12
